Test results from publication PMC5934362.

Key:
Assay in all cases: ITC; 308 K; 50 mM HEPES pH 7.5, 0.5 mM CaCl2, 0.5 mM TCEP; TrxADocScaA variant in the cell, titrated with 28 injections of 10 uL CohScaB5; single-site model
[1] = target: TrxADocScaA H722A (Ruminococcus flavefaciens FD-1)
[2] = target: TrxADocScaA V721A (Ruminococcus flavefaciens FD-1)
[3] = target: TrxADocScaA N669A (Ruminococcus flavefaciens FD-1)
[4] = target: TrxADocScaA V662 + V721 double mutant (Ruminococcus flavefaciens FD-1)
[5] = target: TrxADocScaA V666 + V721 double mutant (Ruminococcus flavefaciens FD-1)
[6] = target: TrxADocScaA V662A (Ruminococcus flavefaciens FD-1)
[7] = target: TrxADocScaA N661A (Ruminococcus flavefaciens FD-1)
[8] = target: TrxADocScaA K670A (Ruminococcus flavefaciens FD-1)
[9] = target: TrxADocScaA V662 + V666 + V721 triple mutant (Ruminococcus flavefaciens FD-1)
[10] = target: TrxADocScaA V662 + V666 double mutant (Ruminococcus flavefaciens FD-1)
[11] = target: TrxADocScaA V666A (Ruminococcus flavefaciens FD-1)
[12] = target: TrxADocScaA wild type (dockerin of primary scaffoldin ScaA fused to N-terminal thioredoxin A) (Ruminococcus flavefaciens FD-1)
Sequence of TrxADocScaA wild type (dockerin of primary scaffoldin ScaA fused to N-terminal thioredoxin A) (Ruminococcus flavefaciens FD-1) (main, as listed by the source): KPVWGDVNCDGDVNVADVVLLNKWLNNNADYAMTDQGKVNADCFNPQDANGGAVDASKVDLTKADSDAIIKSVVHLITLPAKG

Substance: RfCohScaB5 (fifth cohesin of adaptor scaffoldin ScaB), expressed alone with a C-terminal hexa-histidine tag (domain or fragment)
- Ka [1]: 2.73e+08 M⁻¹
- dH [1]: -72.4 kcal/mol
- stoichiometry N [1]: 1
- Ka [2]: 5.1e+08 M⁻¹
- dH [2]: -48.7 kcal/mol
- stoichiometry N [2]: 0.95
- Ka [3]: 3.16e+08 M⁻¹
- dH [3]: -73.4 kcal/mol
- stoichiometry N [3]: 1.01
- Ka [4]: 6.24e+07 M⁻¹
- dH [4]: -64.3 kcal/mol
- stoichiometry N [4]: 1.08
- Ka [5]: 2.25e+07 M⁻¹
- dH [5]: -56.5 kcal/mol
- stoichiometry N [5]: 1.01
- Ka [6]: 4.78e+08 M⁻¹
- dH [6]: -68.4 kcal/mol
- stoichiometry N [6]: 1.02
- Ka [7]: 2.64e+06 M⁻¹
- dH [7]: -82.5 kcal/mol
- stoichiometry N [7]: 0.98
- Ka [8]: 3.67e+08 M⁻¹
- dH [8]: -75.1 kcal/mol
- stoichiometry N [8]: 1.02
- Ka [9]: 291000 M⁻¹
- dH [9]: -64.8 kcal/mol
- stoichiometry N [9]: 1.04
- Ka [10]: 1.98e+07 M⁻¹
- dH [10]: -67.5 kcal/mol
- stoichiometry N [10]: 0.98
- Ka [11]: 4.07e+08 M⁻¹
- dH [11]: -56.6 kcal/mol
- stoichiometry N [11]: 1.02
- Ka [12]: 4.02e+08 M⁻¹
- dH [12]: -66.7 kcal/mol
- stoichiometry N [12]: 1.01
